Tests used:
[1] = target: recombinant human BTN3A1-His (Sino Biological Cat. No. 15973-H08H) (human) (UniProt O00481); assay: SPR Biacore multi-cycle kinetics; antibody captured on Protein A, BTN3A1-His analyte, 1:1 fit
[2] = target: cynomolgus BTN3A as expressed on cynomolgus PBMCs (cynomolgus monkey (Macaca fascicularis)); assay: flow cytometry on cynomolgus PBMCs
[3] = target: human BTN3A as expressed on human cells (PBMC, Daudi, tumour cell lines, HUVEC, HEK293T WT) (human); assay: flow cytometry on human PBMCs
[4] = target: human BTN3A as expressed on human cells (PBMC, Daudi, tumour cell lines, HUVEC, HEK293T WT) (human); assay: flow cytometry on Daudi lymphoma cells
[5] = target: human BTN3A as expressed on human cells (PBMC, Daudi, tumour cell lines, HUVEC, HEK293T WT) (human); assay: cell-based or functional assay

recombinant human BTN3A1-His (Sino Biological Cat. No. 15973-H08H) (human), sequence (O00481 30-254 limits assumed): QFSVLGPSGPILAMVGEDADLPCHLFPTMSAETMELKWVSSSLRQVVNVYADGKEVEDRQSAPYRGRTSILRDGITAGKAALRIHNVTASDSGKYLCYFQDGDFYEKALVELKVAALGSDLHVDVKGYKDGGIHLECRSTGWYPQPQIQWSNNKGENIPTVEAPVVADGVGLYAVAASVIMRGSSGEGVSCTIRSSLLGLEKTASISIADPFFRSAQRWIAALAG

Chimeric 20.1 (VH0/Vκ0) IgG4 (S241P, L248E) (antibody)
Kd [1]: 0.234 nM
EC50 [2]: 4.06 µg/mL
EC50 [3]: 3.02 µg/mL
EC50 [4]: 1.19 µg/mL
Functional assay (AML resistant) (γδT cell-based, EC50, µg/mL) [5]: 0.18 µg/mL
Functional assay (AML sensitive) (γδT cell-based, EC50, µg/mL) [5]: 0.05 µg/mL
Functional assay (Daudi) (γδT cell-based, EC50, µg/mL) [5]: 0.02 µg/mL

Source: patent US20260242483A1
